# Measurements taken from patent publication US20220041738A1 (SAITAMA MEDICAL UNIVERSITY, published 2022).
# T1: human ALK2-R375P on cells (human, UniProt Q04771 21-509)
# T1 sequence: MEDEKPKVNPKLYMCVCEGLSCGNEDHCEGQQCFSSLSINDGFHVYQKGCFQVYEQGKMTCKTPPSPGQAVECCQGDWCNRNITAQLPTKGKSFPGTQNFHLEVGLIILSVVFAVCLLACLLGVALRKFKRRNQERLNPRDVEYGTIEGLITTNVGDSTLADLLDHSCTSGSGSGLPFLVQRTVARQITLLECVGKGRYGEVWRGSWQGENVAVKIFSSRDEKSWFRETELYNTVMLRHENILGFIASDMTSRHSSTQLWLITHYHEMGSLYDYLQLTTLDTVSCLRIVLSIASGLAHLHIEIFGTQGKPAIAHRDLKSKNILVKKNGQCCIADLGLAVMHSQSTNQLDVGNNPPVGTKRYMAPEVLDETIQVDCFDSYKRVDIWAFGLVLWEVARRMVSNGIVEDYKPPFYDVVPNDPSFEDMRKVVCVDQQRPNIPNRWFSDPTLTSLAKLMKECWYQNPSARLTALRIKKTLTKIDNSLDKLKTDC
# T2: wild-type human ALK2 on cells (cDNA in pcDEF3) (human, UniProt Q04771 21-509)
# T2 construct: also called wild-type ALK2; ALK2 (WT)
# T2 sequence: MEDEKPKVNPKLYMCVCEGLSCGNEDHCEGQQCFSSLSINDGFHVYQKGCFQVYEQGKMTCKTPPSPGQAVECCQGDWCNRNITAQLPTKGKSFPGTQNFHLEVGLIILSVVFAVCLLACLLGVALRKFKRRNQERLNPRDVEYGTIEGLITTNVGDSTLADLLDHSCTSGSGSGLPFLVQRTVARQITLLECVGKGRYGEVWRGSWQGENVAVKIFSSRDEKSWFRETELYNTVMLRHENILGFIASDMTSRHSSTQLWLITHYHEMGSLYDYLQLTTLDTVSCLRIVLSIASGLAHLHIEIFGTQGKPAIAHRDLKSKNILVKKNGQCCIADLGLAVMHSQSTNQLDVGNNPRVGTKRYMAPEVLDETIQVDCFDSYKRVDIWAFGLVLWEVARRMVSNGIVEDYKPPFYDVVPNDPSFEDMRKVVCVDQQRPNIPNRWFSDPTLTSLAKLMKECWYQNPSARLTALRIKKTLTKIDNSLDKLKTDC
# T3: human ALK2-R258S on cells (human, UniProt Q04771 21-509)
# T3 sequence: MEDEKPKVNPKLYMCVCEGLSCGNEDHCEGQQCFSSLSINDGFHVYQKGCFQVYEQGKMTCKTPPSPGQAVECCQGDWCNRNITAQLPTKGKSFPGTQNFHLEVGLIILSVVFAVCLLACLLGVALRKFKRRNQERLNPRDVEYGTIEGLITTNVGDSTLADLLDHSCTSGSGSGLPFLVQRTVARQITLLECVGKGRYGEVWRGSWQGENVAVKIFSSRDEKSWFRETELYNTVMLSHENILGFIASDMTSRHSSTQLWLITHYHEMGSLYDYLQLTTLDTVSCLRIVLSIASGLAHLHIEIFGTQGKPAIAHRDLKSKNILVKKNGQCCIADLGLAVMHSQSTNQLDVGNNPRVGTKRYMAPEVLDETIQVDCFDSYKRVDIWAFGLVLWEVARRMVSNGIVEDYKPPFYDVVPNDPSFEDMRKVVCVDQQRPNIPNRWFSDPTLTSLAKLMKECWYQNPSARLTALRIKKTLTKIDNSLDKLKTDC
# T4: human ALK2-G325A on cells (human, UniProt Q04771 21-509)
# T4 sequence: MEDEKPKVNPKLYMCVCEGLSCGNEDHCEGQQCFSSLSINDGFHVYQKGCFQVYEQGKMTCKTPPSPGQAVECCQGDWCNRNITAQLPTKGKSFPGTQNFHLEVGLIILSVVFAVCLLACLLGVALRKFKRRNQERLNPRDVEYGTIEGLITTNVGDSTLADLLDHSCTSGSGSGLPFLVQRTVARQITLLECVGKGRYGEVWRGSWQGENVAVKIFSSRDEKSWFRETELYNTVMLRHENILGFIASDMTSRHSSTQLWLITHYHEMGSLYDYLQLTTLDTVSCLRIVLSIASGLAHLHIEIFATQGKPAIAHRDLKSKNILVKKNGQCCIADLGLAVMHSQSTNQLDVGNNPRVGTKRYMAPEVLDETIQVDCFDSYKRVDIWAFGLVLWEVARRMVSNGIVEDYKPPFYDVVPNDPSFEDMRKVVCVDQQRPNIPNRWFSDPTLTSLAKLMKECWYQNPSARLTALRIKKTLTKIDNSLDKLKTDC
# Assays:
# [1] = biological target: T1, human ALK2-R375P on cells; assay: immunofluorescence (legend of FIG. 4)
# Experimental: Mouse C2C12 cells were seeded into a 96-well plate (Greiner Bio-One) at 0.5×10³ cells/well, and cultured in 15% FBS-containing DMEM medium overnight under the conditions of 5% CO₂ at 37° C. On the following day, the C2C12 cells were transfected with each of a wild-type human ALK2 cDNA integrated into pcDEF3; pcDEF3/human ALK2-L196P, pcDEF3/human ALK2-P197_F198delinsL, pcDEF3/human ALK2-R202I, pcDEF3/human ALK2-R206H, pcDEF3/human ALK2-Q207E, pcDEF3/human ALK2-R258S, pcDEF3/human ALK2-G325A, pcDEF3/human ALK2-G328E, pcDEF3/human ALK2-G328R, pcDEF3/human ALK2-G328W, pcDEF3/human ALK2-G356D, and pcDEF3/human ALK2-R375P, which are variants identified in FOP; and pcDEF3 as a control, using Lipofectamine 2000 (Invitrogen), and further cultured overnight.
# The C2C12 cells were fixed with 10% neutral formalin (Nacalai Tesque, Japan) for 20 minutes at room temperature, and then blocked with 10% goat normal serum for 30 minutes. After the blocking agent was removed, purified IgG diluted to 10 μg/mL with the blocking agent was added, and the cells were left for 1 hour at room temperature. After the cells were washed with PBS three times, Goat Alexa 594-conjugated anti-rat IgG (Invitrogen) diluted to 1:1000 with the blocking agent was added, and the cells were left for 1 hour at room temperature. After the cells were washed with PBS three times, the cells were fixed with 10% neutral formalin for 15 minutes at room temperature, and nuclear-stained with DAPI (LifeTechnologies). Fluorescent signals were analyzed with a fluorescence microscope BZ-9000 (Keyence).
# [2] = biological target: T2, wild-type human ALK2 on cells (cDNA in …); assay: immunofluorescence on transfected, formalin-fixed C2C12 cells, IgG at 10 µg/mL, Alexa 594 anti-rat IgG
# Summary of the method: (§1)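 C2C12 mouse myoblasts transfected overnight with human ALK2 cDNA (wild-type or FOP variants incl. G325A, pcDEF3 vector). Cells formalin-fixed, goat-serum blocked, stained 1 h RT with purified IgG at 10 µg/mL, then Alexa 594 anti-rat IgG 1 h; DAPI nuclei, fluorescence microscopy read-out.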
# [3] = biological target: T3, human ALK2-R258S on cells; assay: as above
# Summary of the method: as §1
# [4] = biological target: T4, human ALK2-G325A on cells; assay: as above
# Summary of the method: as §1
Binder,binding result [1],binding result [2],binding result [3],binding result [4]
"rat anti-ALK2 monoclonal antibody A2-11E (antibody, V domains shown, Rat monoclonal IgG from a hybridoma; also called 11E2) VH: EVQLVETGGGLVQPGRSLKLSCVASGFTFSNYYMYWIRQAPGKGLEWISSINTDGGSTYYPDSVKGRFAISRDNAENTVYLQMNSLRSEDTATYYCAKSTPNIPLAYWGQGTLVTVSS VL: DIQMTQSPSLLSASVGDRVTLSCKASQNIYKYLNWFQQKLGEAPKLLIYYSNSLQTGIPSRFSGSGSGTDFTLTISSLQPEDVAIYFCFQYSSGPTFGPGTKLELKR",binds,,,
"rat anti-ALK2 monoclonal antibody A2-27D (antibody, V domains shown, Rat monoclonal IgG from a hybridoma; also called 27D11) VH: EVQLVESGGGLVQPGRSLKLSCLASGSTFSNYGMKWIRQAPGKGLEWVASISRSSTYIYYADTVKGRFTISRDNARNTLYLQMTSLRSEDTALYYCAAAISTPFYWYFDFWGPGTVVTVSS VL: EIVLTQSPTTMAASPGEKVTLNCLASSSVSYMTWYQQKSGASPKLWIYGTSNLASGVPNRFSGSGSGTSYSLAISSMEAEDVATYYCLHLTSYPPYTFGAGTKLELKR",,binds,binds,binds
"rat anti-ALK2 monoclonal antibody A2-25C (antibody, V domains shown, Rat monoclonal IgG from a hybridoma; also called 25C11) VH: EVQLVESGGGLVQPGGSLKLSCAASGFTFSYYAMSWVCQAPTKGLEWVASISRGGDNTYYRDTVKGRFTTSRDNAKNTLYLQMDSLRSEDTATYYCARLNYNNYFDYWGQGVMVTVSS VL: DIQMTQSPASLSASLEEIVTITCQASQDIGNWLSWYQQKPGKSPQLLIYGATSLADGVPSRFSGSRSGTQYSLKISRLRVEDIGIYYCLQAYSAPFTFGSGTKLEIKR",,binds,binds,binds
"rat anti-ALK2 monoclonal antibody A2-15A (antibody, V domains shown, Rat monoclonal IgG from a hybridoma; also called 15A6) VH: EVQLVESGGGLVQPGRSLKLSCAASGFTFSHYYMAWVRQAPTKGLEWVASITNSGGSINYRDSVKGRFTISRDNAKSTLYLQMDSLRSEDTATYYCTREGGENYGGYPPFAYWGQGTLVTVSS VL: DIVLTQSPALAVSLGQRATISCRANQGVSLSRYNLMHWYQQKPGQKPKLLIYRSSNLASGIPARFSGSGSGTDFTLTINPVQADDIATYYCQQSRESPFTFGAGTKLELKR",binds,,,
